The values that follow come from the Immune Epitope Database (IEDB).

Among the targets are HLA-A*02:03; HLA-A*02:02; HLA-A*02:06.
What all share (experiment): IEDB peptide-MHC binding, purified MHC/competitive/radioactivity; filed as Kd, often an IC50 or EC50 that approximates it; ≥ and ≤ were set here for values at or beyond the usual limits of such assays
The mark [1] stands for this setting: source organism: Dengue virus 2 Jamaica/1409/1983.
[2] abbreviates: source organism: Vaccinia virus WR.
The mark [3] stands for this setting: source organism: Dengue virus 1 Brazil/97-11/1997.
The mark [4] stands for this setting: source organism: Dengue virus 3 Martinique/1243/1999.
The mark [5] stands for this setting: source organism: SARS coronavirus Tor2.
Where [6] appears, read: source organism: Variola major virus.
[7] abbreviates: source organism: Lassa virus Josiah.
Setting [8] is: source organism: Mammarenavirus brazilense.
The mark [9] stands for this setting: source organism: Mammarenavirus juninense.

By Kd is commonly meant the concentration at which binding is half-saturated. In the case of GLFGKGGIV, the Kd with HLA-A*02:03 (setting [1]) came to 11 nM.
With GALYLGHSA, the Kd with HLA-A*02:02 (setting [2]) worked out at 7500 nM; in the test with HLA-A*02:03 (setting [2]) it was 1900 nM; with HLA-A*02:06 (setting [2]), 792 nM.
Turning to SQVNPLTLTA, in the test with HLA-A*02:06 (setting [3]), the Kd was determined as 167 nM.
As for SAEVERLMEL, the Kd with HLA-A*02:02 (setting [2]) turned out to be 1280 nM; in the test with HLA-A*02:03 (setting [2]), 2500 nM; in the test with HLA-A*02:06 (setting [2]) it was 1250 nM.
Regarding ELPVKTDIV, the Kd is at least 23000 nM in the test with HLA-A*02:02 (setting [2]), 8060 nM with HLA-A*02:03 (setting [2]) and 11500 nM with HLA-A*02:06 (setting [2]).
With GLTADARLL, in the test with HLA-A*02:03 (source organism: Homo sapiens), the Kd was found to be 362 nM.
On to TMLDVDLRPA, for which the Kd with HLA-A*02:06 (source organism: Dengue virus 1 Singapore/S275/1990) is 16.9 nM.
For YAGTIKESL, the Kd with HLA-A*02:02 (setting [2]) was found to be 2070 nM; in the test with HLA-A*02:03 (setting [2]), 2490 nM; in the test with HLA-A*02:06 (setting [2]) it was 3300 nM.
In the case of AMHTALTGA, in the test with HLA-A*02:03 (setting [1]), the Kd was determined as 15.1 nM.
As to RTRLYDYFT, the Kd with HLA-A*02:02 (setting [2]) was 7100 nM; in the test with HLA-A*02:03 (setting [2]) it was 3050 nM; with HLA-A*02:06 (setting [2]), at least 48500 nM.
As to DVEKRILNTI, the figures for the Kd with HLA-A*02:02 (setting [2]), with HLA-A*02:03 (setting [2]) and with HLA-A*02:06 (setting [2]) were at least 21000 nM, 12600 nM and 10800 nM, respectively.
Turning to CTIVDSMII, the Kd is 13900 nM with HLA-A*02:02 (setting [2]), 1790 nM with HLA-A*02:03 (setting [2]) and 4580 nM with HLA-A*02:06 (setting [2]).
With PLNEGVMAV, in the test with HLA-A*02:03 (setting [4]), the Kd is 21.5 nM.
With QLYTISSESL, the Kd stood at 71.7 nM with HLA-A*02:02 (setting [2]), 245 nM in the test with HLA-A*02:03 (setting [2]) and 4750 nM in the test with HLA-A*02:06 (setting [2]).
On the same counts, the results for KLPTLFGRGV are 190 nM, 32.6 nM and 52.6 nM.
For LLAIGCYSQV, the Kd in the test with HLA-A*02:03 (setting [1]) turned out to be 8.28 nM.
In the case of IISYIILFIL, the Kd turned out to be 66.2 nM with HLA-A*02:02 (setting [2]), 489 nM with HLA-A*02:03 (setting [2]) and 3930 nM in the test with HLA-A*02:06 (setting [2]).
For TTLLNETAKV the same measures were 1640 nM, 0.17 nM and 1650 nM.
On the same counts, the results for YVEHDPRLV are 1180 nM, 711 nM and at least 22500 nM.
With FLLVTLAIL, the Kd with HLA-A*02:02 (setting [5]) worked out at 0.645 nM; with HLA-A*02:03 (setting [5]), 0.97 nM; with HLA-A*02:06 (setting [5]), 0.476 nM.
Take AADLTQIFEV: the Kd is 1240 nM with HLA-A*02:02 (setting [2]), 404 nM in the test with HLA-A*02:03 (setting [2]) and 10.9 nM with HLA-A*02:06 (setting [2]).
On the same counts, the results for YLGPRVCWL are 0.901 nM, 3.36 nM and 23.2 nM.
For ALVSDCASTI the same measures were 94.2 nM, 52.1 nM and 240 nM.
Regarding QVKELGIAI, the results for the Kd with HLA-A*02:02 (setting [2]), with HLA-A*02:03 (setting [2]) and in the test with HLA-A*02:06 (setting [2]) were 9050 nM, 882 nM and 3710 nM, respectively.
Turning to LVIGFLFLA, the Kd in the test with HLA-A*02:02 (setting [5]) was 7.38 nM; with HLA-A*02:03 (setting [5]), 19.6 nM; with HLA-A*02:06 (setting [5]) it was at most 0.1 nM.
Turning to FIMRNFLRSI, the Kd in the test with HLA-A*02:02 (setting [2]) is 27.7 nM; in the test with HLA-A*02:03 (setting [2]), 0.118 nM; in the test with HLA-A*02:06 (setting [2]), 0.447 nM.
On the same counts, the results for NLYISDYKML are 1250 nM, 1830 nM and at least 36000 nM.
In the case of NLDDVYSYI, the Kd with HLA-A*02:02 (setting [6]) stood at 0.722 nM; with HLA-A*02:03 (setting [6]) it was 96 nM; in the test with HLA-A*02:06 (setting [6]), 91.8 nM.
GVVTTSGTYV: in the test with HLA-A*02:06 (setting [3]), the Kd turned out to be 665 nM.
For LNISGYNFSL, the values for the Kd with HLA-A*02:02 (setting [7]), in the test with HLA-A*02:03 (setting [7]) and with HLA-A*02:06 (setting [7]) were 15.5 nM, 4550 nM and 420 nM, respectively.
For LLGLILFVL, the Kd came to 266 nM with HLA-A*02:02 (setting [2]), 1860 nM in the test with HLA-A*02:03 (setting [2]) and 8140 nM in the test with HLA-A*02:06 (setting [2]).
Turning to TLIMIGSNA, the dissociation constant Kd with HLA-A*02:03 (setting [4]) was found to be 32 nM.
As to PTSETMYLTM, the Kd was 862 nM with HLA-A*02:02 (setting [2]), 191 nM in the test with HLA-A*02:03 (setting [2]) and 915 nM in the test with HLA-A*02:06 (setting [2]).
For the sequence LMANLAPHLL, the Kd with HLA-A*02:02 (setting [5]) worked out at 0.228 nM; with HLA-A*02:03 (setting [5]), 1.46 nM; with HLA-A*02:06 (setting [5]) it was 115 nM.
Take ALINLVQYRI: the Kd with HLA-A*02:02 (setting [2]) is 8.32 nM; in the test with HLA-A*02:03 (setting [2]), 81.6 nM; with HLA-A*02:06 (setting [2]), 417 nM.
For TLFIDRGSI the same measures were 2100 nM, 802 nM and at least 77100 nM.
As for KNATWCLEV, the Kd was 1610 nM with HLA-A*02:02 (setting [8]), 7010 nM with HLA-A*02:03 (setting [8]) and 2310 nM with HLA-A*02:06 (setting [8]).
As for YVHEGVSYEV, the Kd is 12.9 nM with HLA-A*02:02 (setting [2]), 71 nM with HLA-A*02:03 (setting [2]) and 9.08 nM with HLA-A*02:06 (setting [2]).
As to ALNIALVAV, the Kd with HLA-A*02:02 (setting [9]) is 15.3 nM; with HLA-A*02:03 (setting [9]) it was 4.46 nM; with HLA-A*02:06 (setting [9]), 370 nM.
For the sequence GMSIVCIVAA, the Kd in the test with HLA-A*02:02 (setting [2]) came out at 161 nM; in the test with HLA-A*02:03 (setting [2]), 231 nM; with HLA-A*02:06 (setting [2]) it was 1220 nM.
In the case of SLGLILLKIV, in the test with HLA-A*02:03 (source organism: Dengue virus 4 Dominica/814669/1981), the Kd was determined as 14.7 nM.
